The assay addresses Human MMP-12(ΔC) (human, UniProt P39900 106-263). The assay can be described thus: enzyme inhibition kinetics.

Sequence of Human MMP-12(ΔC) (P39900 106-263, stated change not applied): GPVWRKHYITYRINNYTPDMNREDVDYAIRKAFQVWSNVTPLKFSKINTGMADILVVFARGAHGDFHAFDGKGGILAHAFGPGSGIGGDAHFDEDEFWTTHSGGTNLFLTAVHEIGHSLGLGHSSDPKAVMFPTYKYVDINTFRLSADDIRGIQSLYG

B1: N-TIMP-1, N-terminal inhibitory domain of tissue inhibitor of metalloproteinases 1 (active form, free alpha-amino group of Cys1) (domain or fragment)
chain: not shown
For B1, the Ki is around 1.5 nM and the “stoichiometry N” value amounted to 1.05 molar equivalents.

The record behind these values is PMC2804306 (Biopolymers, 2008).
